Series [1] deals with healthy Balb/c mice. Nature of the series: Toxicity study, histopathology (5-point grade); 3 i.v. injections at 7-day interval; control group 2 = 3× 1200 pmol [175Lu]Lu-NeoB; treatment groups 1/2/3 = 3× 40 MBq/400 pmol, 80 MBq/800 pmol, 120 MBq/1200 pmol [177Lu]Lu-NeoB. The class given is in vivo, mouse. Here is the method:
(§1) Five different experimental groups (10 male and 10 female healthy animals per group; n = 100) were included in the radiotoxicity study and treated as follows: control group 1: 3 × vehicle (PBS + kolliphor HS 15 (1 mg/mL)); control group 2: 3 × 1200 pmol [^175Lu]Lu-NeoB; treatment group 1: 3 × 40 MBq/400 pmol [^177Lu]Lu-NeoB; treatment group 2: 3 × 80 MBq/800 pmol [^177Lu]Lu-NeoB; and treatment group 3: 3 × 120 MBq/1200 pmol [^177Lu]Lu-NeoB.
(§2) Animals received 3 injections with an interval of 7 days between each injection.
At 5, 19, and 43 weeks after the first injection, 3–4 male and 3–4 female animals of each group were sacrificed by isoflurane overdose after a blood sample was taken by retro-orbital puncture. Hereafter, the axillary lymph nodes, mesenteric lymph nodes, skin, mammary fat pad, sternum, pancreas, adrenal glands, kidneys, spleen, liver, gallbladder, stomach, duodenum, jejunum, ileum, caecum, colon, rectum, testes (M), epididymis (M), seminal vesicles (M), prostate gland (M), ovaries (F), oviducts (F), uterus-cervix (F), vagina (F), bladder, ureters, sciatic nerve, skeletal muscle, femur, lungs, trachea, esophagus, thymus, thyroid gland, aorta, heart, brain, pituitary gland, eyes, harderian glands, tongue, spinal column, and the tail were collected and analyzed macroscopically. All organs and tissues were formalin fixed (4% buffered formaldehyde) and shipped to the European Research Biology Centre (ERBC, Pomezia, Rome, Italy) where histological sampling, embedding, sectioning (5 µm thick), and hematoxylin–eosin staining were performed according to standard guidelines. All organs and tissues were analyzed microscopically by an experienced pathologist. A 5-point grading scale was used: 1: minimal change, 2: mild change, 3: moderate change, 4: marked change, 5: severe change.

In series [2] the test system is healthy Balb/c mice. Nature of the series: Toxicity study, clinical chemistry. The class given is in vivo, mouse. The settings on record: control group 2, 5, 11, 19, 30, 43 wk, mean±SD. Here is the method: as §1, §2
In addition, the following clinical chemistry parameters were measured: sodium, potassium chloride, calcium, glucose, creatinine, urea, alanine aminotransferase (ALT), aspartate aminotransferase (AST), alkaline phosphatase (ALP), amylase, lipase, and cholesterol, using the Roche/Hitachi cobas c systems according to the standard protocol. To reach the volume necessary for measuring the clinical chemistry parameters, the blood plasma was diluted 3–5 times with demineralized water.

Series [3] has as its system healthy Balb/c mice. Nature of the series: Toxicity study, hematology (same groups as A3). The settings on record: control group 2, 5, 11, 19, 30, 43 wk, mean±SD. The class given is in vivo, mouse. Here is the method: as §1, §2
Throughout the study, the animals were observed daily to check for physical signs of toxicity and signs of discomfort, and animals were weighed 2–3 times per week. Furthermore, at week -1, 5, 11, 19, 30, and 43, blood samples were collected by submandibular puncture from all animals that were in the study at that time point. All blood samples were analyzed for hematological parameters (hematocrit; hemoglobin; red blood cell count; white blood cell count; hemoglobin; mean cell hemoglobin concentration; mean cell volume; platelet count) on the scilVet abc + counter (Covetrus).

Series [4] deals with patients. The note with it: human, in vivo; cited from earlier work. An excerpt: Due to the very small size of murine kidneys and the long range of β^− particles, the murine kidneys receive a more homogeneous radiation dose compared to the much larger human kidneys. […] These ... || Bone marrow toxicity is a concern when using targeted radionuclide therapy with, for example, lutetium-177 labeled peptides with a long circulation time. Here, we found a decrease in WBC counts 5 weeks after radioligand injection in treatment group 3, which received bone marrow doses between 0.20 and 0.36 Gy. Although not clear from our histopathological analysis, this finding could potentially indicate bone marrow suppression. However, it should also be noted that the brief drop in WBC counts may have (partly) been caused by the reported urinary bladder inflammation. The observed ...

Where [5] appears, read: female wk 43, control group 2, grade 1.
Setting [6] is: female wk 43, control group 2, grade 2.
[7] abbreviates: male wk 5, control group 2, grade 1.
The mark [8] stands for this setting: male wk 5, control group 2, grade 2.
Where [9] appears, read: male wk 19, control group 2, grade 1.
The mark [10] stands for this setting: male wk 43, control group 2, grade 1.
Where [11] appears, read: male wk 43, control group 2, grade 2.

Several values for one entry are separate records, joined by “and”; a condition that tells them apart may be missing. Identical values can stand only once.

As for `CC(C)CC(CC(C)C)NC(=O)[C@H](Cc1cnc[nH]1)NC(=O)CNC(=O)[C@@H](NC(=O)[C@H](C)NC(=O)[C@H](Cc1c[nH]c2ccccc12)NC(=O)[C@H](CCC(N)=O)NC(=O)[C@@H](Cc1ccccc1)NC(=O)COCC(=O)Nc1ccc(CNC(=O)CN2CCN(CC(=O)O)CCN(CC(=O)O)CCN(CC(=O)O)CC2)cc1)C(C)C` [[^175Lu]Lu-NeoB], in series [1] (control group 2, 3× 1200 pmol, male and female), the Treatment-related toxicological effects entry is on record as “did not show any treatment-related toxicological effects”. In addition, the “Adrenal glands subcapsular cell hyperplasia, incidence” value in series [1] (female wk 5, control group 2, grade 1) was 2/3; in series [1] (female wk 19, control group 2, grade 1), 1/3; in series [1] (female wk 19, control group 2, grade 2) it was 2/3; in series [1] (setting [5]), 1/4; in series [1] (setting [6]), 2/4; in series [1] (setting [7]), 1/3. The “Adrenal glands subcapsular cell hyperplasia, incidence” value in series [1] (setting [8]) is 1/3; in series [1] (setting [9]), 2/3; in series [1] (setting [10]), 3/4; in series [1] (setting [11]), 1/4. Also, the “Brain artifacts, incidence” value in series [1] (female wk 5, control group 2, grade 3) was 1/3. Also, the “Liver inflammatory cell foci, incidence” value in series [1] (setting [5]) is given as 1/4. For the same molecule, the “Pancreas inflammatory cell foci, incidence” value in series [1] (setting [6]) was 1/4; in series [1] (setting [9]), 1/3; in series [1] (setting [11]), 1/4. Moreover, the “Uterus endometrial hyperplasia, incidence” value in series [1] (female wk 43, control group 2, grade 4) is on record as 1/4. In series [1] (setting [7]), the “Adrenal glands accessory cortical tissue, incidence” value was 1/3. In addition, the “Spleen extramedullary haematopoiesis, incidence” value in series [1] (setting [8]) is reported as 1/3. For the same molecule, the “Urinary bladder proteinaceous plug, incidence” value in series [1] (male wk 19, control group 2, grade 2) is recorded as 1/3. Moreover, in series [1] (setting [10]), the “Kidneys inflammatory cell foci, incidence” value was 1/4. Besides, the “Testes germ cell depletion, incidence” value in series [1] (setting [10]) is reported as 1/4. The “Kidneys cyst/s, incidence” value in series [1] (male wk 43, control group 2, grade 3) is 1/4. Moreover, the “Alk. Phosphatase” value in series [2] (female) is 100.20 ± 6.96 U/L and 84.43 ± 7.63 U/L and 73.57 ± 9.88 U/L and 86.25 ± 8.54 U/L and 71.25 ± 14.93 U/L; in series [2] (male) it was 117.70 ± 8.30 U/L and 100.29 ± 7.72 U/L and 62.50 ± 6.45 U/L and 80.00 ± 7.07 U/L and 67.50 ± 2.89 U/L. Moreover, the Urea in series [2] (female) was 7.83 ± 0.88 mmol/L and 7.07 ± 1.19 mmol/L and 6.14 ± 0.38 mmol/L and 7.00 ± 0.00 mmol/L and 6.17 ± 0.76 mmol/L; in series [2] (male), 7.17 ± 0.64 mmol/L and 5.61 ± 0.86 mmol/L and 5.75 ± 0.65 mmol/L and 6.75 ± 1.55 mmol/L and 8.00 ± 2.12 mmol/L. Further, the WBC was 7.27 ± 1.51 103/mm3 and 8.51 ± 2.34 103/mm3 and 6.74 ± 3.19 103/mm3 and 10.38 ± 2.86 103/mm3 and 7.40 ± 0.72 103/mm3 in series [3] (female); 7.67 ± 1.50 103/mm3 and 8.37 ± 2.67 103/mm3 and 9.53 ± 2.84 103/mm3 and 9.80 ± 2.25 103/mm3 and 6.70 ± 2.71 103/mm3 in series [3] (male).
As to [^177Lu]Lu-DOTATATE, in series [4], the “Average absorbed bone marrow dose” value is on record as 2 Gy; the “Average kidney dose in patients” value is listed as 20.1 ± 4.9 Gy; the “Minimal to mild nephrotoxicity, cases” value is recorded as 6/79.

These data come from PMC9605926, “Safety of [^177Lu]Lu-NeoB treatment: a preclinical study characterizing absorbed dose and acute, early, and late organ toxicity” (European Journal of Nuclear Medicine and Molecular Imaging, 2022).
